Measurements as given in US20220275098A1.

Target: CD30 (analyte in SPR) (UniProt P28908)
Assay: SPR, 25° C. pH 7.4, scFv captured on chip, CD30 as analyte, average value

CD30 (analyte in SPR), sequence (P28908 19-379 limits assumed): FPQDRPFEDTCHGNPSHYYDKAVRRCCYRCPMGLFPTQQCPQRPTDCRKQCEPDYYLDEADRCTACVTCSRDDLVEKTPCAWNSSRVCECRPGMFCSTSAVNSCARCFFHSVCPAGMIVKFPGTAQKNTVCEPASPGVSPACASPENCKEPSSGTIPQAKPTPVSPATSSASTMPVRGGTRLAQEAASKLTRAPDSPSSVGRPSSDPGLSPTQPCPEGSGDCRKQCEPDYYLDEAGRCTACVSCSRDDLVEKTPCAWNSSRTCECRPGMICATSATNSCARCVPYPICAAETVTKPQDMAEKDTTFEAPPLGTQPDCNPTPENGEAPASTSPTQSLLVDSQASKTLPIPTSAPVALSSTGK

- Kd: 0.8 nM
B1: anti-CD30 clone 52-2 scFv (scFv, part only; not given: Linker, domain order, tag, V domains shown, not shown: another chain or arm of the molecule; small tags and cut ends)
VH: EVQLVESGGGLVQPGGSLRLSCAASGFTFSSYYMHWVRQAPGKGLEWVSAISWSGGSTYYADSVKGRFTISRDNSKNTLYLQMNSLRAEDTAVYYCARDRFMPFIPNTLGFDVWGQGTLVTVSS
VL: DIQMTQSPSSLSASVGDRVTITCQASQDISNYLNWYQQKPGKAPKLLIYVASNLETGVPSRFSGSGSGTDFTFTISSLQPEDIATYYCQQDADVPLTFGQGTKVEIK
